Publication PMC5117717

Legend:
[1] = biological target: Alexa Fluor 488-labelled BRC4 peptide (human); assay: fluorescence polarisation; direct binding; 10 nM Alexa Fluor 488-labelled BRC4 peptide constant, protein titrated; 25 °C, 100 mM Tris (pH 7.5), 200 mM KCl, 1.25% glycerol; single-site fit
[2] = biological target: unlabelled BRC4 repeat (E. coli-produced); assay: DSF (thermal shift); conditions: read off a plot
[3] = biological target: ATP-Mg2+; assay: DSF (thermal shift); conditions: read off a plot
[4] = biological target: RadA oligomerisation peptide; assay: DSF (thermal shift); conditions: read off a plot
[5] = biological target: HumRadA1 (first humanised RadA protein) (Pyrococcus furiosus) (UniProt O74036); assay: ITC; 25 °C; peptide titrated into protein; single-site model; the buffer for HumRadA1 is not listed
[6] = biological target: HumRadA33 (Pyrococcus furiosus) (UniProt O74036); assay: ITC; 25 °C; peptide titrated into protein; 50 mM Tris–HCl (pH 8.5), 250 mM NaCl, 5 mM MgCl2; single-site model
[7] = biological target: HumRadA2 (Pyrococcus furiosus) (UniProt O74036); assay: ITC; 25 °C; peptide titrated into protein; 50 mM Tris–HCl (pH 7.5), 150 mM NaCl, 5 mM MgCl2; single-site model
[8] = biological target: ChimRAD51 (archeal human chimeric RadA/RAD51/RadA protein) (Pyrococcus furiosus | human) (UniProt O74036); assay: ITC; 25 °C; ChimRAD51 dialysed against 20 mM K/phosphate (pH 8.0) and 192 mM KCl

Substance | other: ΔT (DSF thermal shift on ligand addition) [2] [°C] | Kd [5] [nM] | Kd [6] [nM] | also measured
ChimRAD51 (archeal human chimeric RadA/RAD51/RadA protein) (from UniProt O74036 108-165; Q06609 156-261; O74036 278-349) | – | – | – | Kd [1]: 4 nM
PfRadA monomeric C-terminal ATPase domain (from residue 108, L2 loop deleted) I169M; Y201A; V202Y; E219S; D220A; K221M | 0.3 | – | – | –
PfRadA monomeric C-terminal ATPase domain (from residue 108, L2 loop deleted) I169M; Y201A; V202Y; L213Q; V215L; Q216Y; E219S; D220A; K221M; D267M; L274E; Y275F | 0.15 | – | – | other: ΔT (DSF thermal shift on ligand addition) [3]: 6.1 °C; other: ΔT (DSF thermal shift on ligand addition) [4]: 2.7 °C
RAD51 oligomerisation peptide | – | 24000 | 800 | –
RadA oligomerisation peptide | – | 1800 | 14000 | Kd [7]: 3400 nM
unlabelled BRC4 repeat (E. coli-produced) (peptide) | – | – | 33 | stoichiometry N [8]: 1
